Experimental data: patent US6703037B1, “Biodegradable macromers for the controlled release of biologically active substances” (Pelias Technologies, Inc., priority 1997, dated 2004)

Key:
[1] = In vitro release of EPO from 3.4KL5 discs, size exclusion chromatography (Example 14); type: physicochemical
Procedure: To a sterile 20 mL vial were added: 0.0330 g of TEOA (neat), 1.0076 g of 3.4KL5, 0.0598 g of 1000 ppm eosin (in PBS, pH 7.0), and 2.32 g solution of EPO (10,000 units/mL). No vinyl pyrrolidone, or other polymerizable monovinyl monomer was added. The resulting mixture was mixed and polymerized by light (ILC Technology, Inc. Xenon Light Source with Fiber Optics).
The rate of in vitro release was conducted by averaging the release from 3 discs containing an average of 2500 units per disc. The release was conducted in 4 mL of PBS (pH 7.4) at 39° C. The release media was exchanged daily. Analysis was done by size exclusion chromatography. (HPLC: model 2690 by waters, Column: SEC 250 by BioRad, mobile phase: 0.8M TFA in 60% acetonitrile @1.5 mL/min, detector wavelength: 220 nm).

male Sprague-Dawley rats = test: Fraction of reticulocytes in rats given EPO (Example 11); type: in vivo, rat; conditions: day 5, Acridine Orange, flow cytometry
Procedure: The controlled delivery of active human erythropoeitin (EPO) was confirmed in male Sprague-Dawley rats purchased from Taconic Labs (Germantown, N.Y.). Hydrogel devices were manufactured to contain 3000 Units per device, as described in Example 14. These devices were prepared in the absence of vinyl pyrrolidone, and other polymerizable monovinyl monomers. One of these devices was implanted in each of 3 rats. Three other rats received a subcutaneous injection of EPO (1000 Units) daily for 3 days. A control group of 3 rats received no treatment.
On day 5 after implantation of the device or the start of the subcutaneous injections, venous blood samples were obtained from each rat and stored in EDTA. The fraction of reticulocytes (immature red blood cells) was determined after staining with Acridine Orange by automated flow cytometry.

[2] = In vitro release of insulin from 3.4KL5 particles, size exclusion chromatography (Example 15); type: physicochemical
Procedure: No vinyl pyrrolidone, or other polymerizable monovinyl monomer was added. The resulting mixture was mixed and placed into 10 mL glass tubes. The tubes were exposed to xenon light (ILC Technology, Inc. Xenon Light Source with Fiber Optics) for 10 seconds. The semi-cured hydrogel was pushed out of the glass tube and further polymerized for 3.5 minutes. The cured hydrogel rods were placed in 15 mL of heptane and ground using a homogenizer (Silverson L4RT-A) for 30 seconds @5000 rpm, followed by 30 seconds @3000 rpm. The heptane was decanted, and the powder was dried under nitrogen.
Particles (16 mg) were placed in a porous (0.8 mm) “release-bag” (described in Example 5). The in vitro release was calculated by averaging the release from 2 release bags. The release-bag was placed into 2 mL of PBS (pH 7.4) at 39° C. The release media was exchanged every 15 minutes for the first 2 hours and every 30 minutes thereafter. Analysis was done by size exclusion chromatography. (HPLC: model 2690 by waters, Column: SEC 250 by BioRad, mobile phase: 0.8M TFA in 60% acetonitrile @1.5 mL/min, detector wavelength: 220 nm).

[3] = In vitro short term release of insulin from 3.4KL5, SEC-HPLC (Example 6); type: physicochemical; conditions: Zn-Insulin 47% loading in 3.4KL5
Procedure: Device Preparation: A degradable macromer (3.4KL5) was used. […] The protein was loaded at a loading of 47%, based on dry weight. Three samples were prepared.
The samples were prepared as described in Example 4. The samples were analyzed by SEC-HPLC for the detection of monomers, dimers and soluble aggregates, using the conditions described in Example 5.

hypophysectomized rats [4] = test: Growth of hypophysectomized rats given hGH (Example 13); type: in vivo, rat; conditions: hypophysectomized female rats; initial results
Text: The controlled delivery of active human growth hormone (hGH, MW 20 Kd) was confirmed in the hypophysectomized rat model. Hypophysectomized female rats purchased from Taconic Labs (Germantown, N.Y.) were weighed each morning. Prior to the initiation of the study the rats were held 7 days to confirm lack of growth. The rats were divided into 3 groups of equal mean weights. Group 1 remained untreated and served as a negative control. Group 2 received an implant of hGH in a hydrogel made of a 3:1 blend of 3.4KL5 and 3.4KC6 (each device contained approximately 1 mg of hGH). The rats in Group 3 were injected with 100 μg hGH subcutaneously each day for the duration of the study.

[5] = In vitro release of bST from 3.4KL5/PEG-diacrylate blend discs, SEC-HPLC (Example 5); type: physicochemical
Procedure: Device Preparation: A blend of a degradable macromer (3.4KL5) and a non-degradable macromer (PEG-diacrylate, MW 3,400) was used. The protein used was ZnbST (Monsanto/Protiva). The protein was loaded at a loading of 20%, based on dry weight. 3 samples were prepared, as follows.
Sample preparation: 20 μL of the bST-precursor solution were prepared, as described in Example 1. The mixture was pipetted using a positive displacement pipette with a silanized glass tip. The solution was placed onto a silanized glass slide. Using pieces of plastic sheets with thicknesses of about 0.4±0.2 mm as spacers, another silanized glass slide was placed on top and held firmly in place using binder clips. A light source (ILC Technology, Inc. Xenon Light Source with Fiber Optics) was adjusted to about a 5-cm distance from the glass slide using clamps and a stand. The center of the disc was illuminated; both sides of the disc were illuminated, for two minutes each.
The clips, the glass slide, and the spacers were carefully removed. With a spatula and tweezers, the discs were removed and weighed on a clean, tared silanized glass slide. The disc was placed into a heat-sealed membrane bag, as described in more detail below. One 20 μL disc was placed in each bag. The bag was heat-sealed, placed in 2.0 mL of phosphate buffer release media (0.01% NaN3, 0.05M PBS, pH 7.4), placed on an orbital shaker turning at 100 rpm, and incubated at 39° C.
For each time point, the bag was placed into fresh 2.0 mL of PBS Release Media. Samples were collected for analysis every day for as long as the bST was being released.
Membrane bags were prepared as follows. Membrane sheets were cut into pieces of approximately 7×2.5 cm. The sheets were folded in half. Using a Bunsen burner or a propane torch, a spatula was heated until it became red. The edges of the sheets were aligned, and the side of the membrane was cut with the […] to seal the sides. […]
The samples were analyzed daily by SEC-HPLC. Monomers, dimers, and soluble aggregates could be detected using this method. […]

[6] = Release of bST from cylindrical hydrogel devices of large and small diameter, HPLC (Example 10); type: physicochemical
Procedure: A macromer mixture containing approximately 30% (w/w) of bST was prepared using the methods described above. The macromer/protein mixture was put in a glass cylinder having an internal diameter of either 1.12 mm or 0.61 mm. The system was exposed to light for 20 seconds, removed from the glass cylinder, placed on aluminum foil, and exposed to light for an additional 3.5 minutes. The resulting hydrogel cylinders were placed in 1 mL of release media (PBS, pH 7.4), and the released bST was monitored by HPLC. […] In addition, the characteristics of the bST release indicated degradation/swelling of a controlled system. […] For n=0.5, the drug release follows a Fickian-diffusion mechanism. For n>0.5, non-Fickian behavior was observed.
In a different analysis based only on diffusion, the flux from the cylinder was analyzed using the following Fickian equation: J=D*A*ΔC/ΔX, where J is the flux; D is the diffusion constant; A is the surface area; C is the concentration in the cylinder; and […] from the center. In this analysis the flux should differ dramatically whether the release occurred from either a large or a small diameter cylinder. Theoretical analysis predicted that under Fickian diffusion, when the smaller diameter cylinder released 20%, the larger diameter cylinder would release 7% of the incorporated drug. […]

hypophysectomized rats [7] = test: Growth of hypophysectomized rats given bST (Example 9); type: in vivo, rat; conditions: hypophysectomized female rats, 118±1.5 grams on day 1; mean±sem
Text: The controlled delivery of active bovine somatotropin (MW 20 Kd) was confirmed in the hypophysectomized rat model. Hypophysectomized female rats were purchased from Taconic Labs (Germantown, N.Y.). The rats were weighed each morning. Prior to the initiation of the study, the rats were held 7 days to confirm lack of growth. On day 1 of the study the rats weighed 118±1.5 grams (mean±sem, n=18). The rats were divided into 3 groups of equal mean weights. Group 1 remained untreated and served as a negative control. Group 2 received an implant of bST in a hydrogel made of a blend of 3:1 of 3.4KL5 and PEGDA (each device contained 0.9 to 1.1 mg of bST). The rats in Group 3 were injected with 100 μg bST subcutaneously each day for the duration of the study.

[8] = In vitro release of ZnbST from 75:25 blend of 3.4KL5 and 3.4KC6, SEC-HPLC (Example 8); type: physicochemical
Procedure: Devices were prepared as describe above. A blend of a soluble macromer (3.4KL5) and an insoluble macromer (3.4KC6) were used, in a ratio of 75:25. The protein ZnbST (Protiva/Monsanto) was loaded at a loading of 25%, based on dry weight. Six samples were prepared. The samples were analyzed by SEC-HPLC to detect monomers, dimers, and soluble aggregates, as described above.

[9] = In vitro release of ZnbST from 50:50 blend of 3.4KL5 and 3.4KC6, SEC-HPLC (Example 7); type: physicochemical; conditions: 25% loading in 50:50 blend of 3.4KL5 and 3.4KC6
Procedure: Devices were prepared as describe above. Macromers containing a blend of a soluble macromer (3.4KL5) and an insoluble macromer (3.4KC6) were used in a ratio of 50:50. The protein used was ZnbST (Protiva/Monsanto); it was loaded at a loading of 25%, based on dry weight. Six samples were prepared. The samples were analyzed by SEC-HPLC, as described above. The samples were monitored for the presence of monomers, dimers and soluble aggregates.

## EPO: human erythropoeitin
[1]; after 120 hours
  EPO still being released: over 500 units
[1]; average 2500 units per disc, PBS pH 7.4, 39° C.
  period over which EPO was released: at least 120 hours
Male Sprague-Dawley rats
  reticulocytes: about 19%

## Insulin: Zn-Insulin / insulin purchased from Sigma, loaded into 3.4KL5
[2]; 3.4KL5 particles (16 mg) in release-bag, PBS pH 7.4, 39° C.
  period over which insulin was released: 90 min
[2]; after 90 minutes, 3.4KL5 particles
  insulin still being released: 100 µg
[3]; SEC-HPLC
  dimers or soluble aggregates: no dimers or soluble aggregates were detected
[3]; within 24 hours
  release achieved (complete release): 100%

## hGH: human growth hormone (MW 20 Kd)
Hypophysectomized rats [4]
  growth of the rats: exhibited continued growth

B1: bovine somatotropin (protein, UniProt P01246 27-217, looked up)
Somatotropin: AFPAMSLSGLFANAVLRAQHLHQLAADTFKEFERTYIPEGQRYSIQNTQVAFCFSETIPAPTGKNEAQQKSDLELLRISLLLIQSWLGPLQFLSRVFTNSLVFGTSDRVYEKLKDLEEGILALMRELEDGTPRAGQILKQTYDKFDTNMRSDDALLKNYGLLSCFRKDLHKTETYLRVMKCRRFGEASCAF
notes: bovine somatotropin (MW 20 Kd)
[5]; ZnbST 20% loading in blend of 3.4KL5 and PEG-diacrylate
  initial release on each of the first two days: 12%
[5]; ZnbST 20% loading in blend of 3.4KL5 and PEG-diacrylate MW 3,400, PBS pH 7.4, 39° C.
  period over which bST was released: 14 days
[5]; ZnbST 20% loading in blend of 3.4KL5 and PEG-diacrylate, SEC-HPLC
  dimers or soluble aggregates in the release media: No detectable levels
[6]; both cylinders, n>0.5 = non-Fickian
  exponent n characteristic of the mode of transport: 2
[6]; when the smaller diameter cylinder released 20%
  incorporated drug released by the larger diameter cylinder (observed): 16%
Hypophysectomized rats [7]
  body weight after 11 days: 151±4 grams

B2: ZnbST: ZnbST protein (Monsanto/Protiva) loaded into macromer hydrogels (protein, UniProt P01246 27-217, looked up)
Somatotropin: B1 Somatotropin
modifications: zinc complex
notes: ZnbST protein (Monsanto/Protiva) loaded into macromer hydrogels
[8]; 25% loading in 75:25 blend of 3.4KL5 and 3.4KC6
  period over which ZnbST was released: 17 days
[8]; 75:25 blend of 3.4KL5 and 3.4KC6, SEC-HPLC
  dimer or aggregate released: Very little
[8]; within 13 days of release, 75:25 blend of 3.4KL5 and 3.4KC6
  incorporated ZnbST released: 90%
[9]
  initial burst release: no initial burst release was observed
  period over which ZnbST was released: 20 days
[9]; SEC-HPLC
  concentrations of dimers or soluble aggregates: less than 2%
